Assay results: PMC3692409, “RIT2, a neuron-specific small guanosine triphosphatase, is expressed in retinal neuronal cells and its promoter is modulated by the POU4 transcription factors”

T1: POU4F1-s (UniProt Q01851 85-419)
T1 sequence: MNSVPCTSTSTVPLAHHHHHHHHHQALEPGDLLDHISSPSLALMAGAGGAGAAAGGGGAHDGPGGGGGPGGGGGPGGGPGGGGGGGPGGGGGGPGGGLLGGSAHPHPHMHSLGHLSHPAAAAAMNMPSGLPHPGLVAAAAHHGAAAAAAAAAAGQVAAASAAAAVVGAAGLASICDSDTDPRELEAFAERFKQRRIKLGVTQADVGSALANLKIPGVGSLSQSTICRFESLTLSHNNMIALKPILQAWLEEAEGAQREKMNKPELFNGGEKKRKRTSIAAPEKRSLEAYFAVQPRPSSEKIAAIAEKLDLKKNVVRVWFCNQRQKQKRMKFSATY

T2: POU4F1-l (UniProt Q01851 1-419)
T2 sequence: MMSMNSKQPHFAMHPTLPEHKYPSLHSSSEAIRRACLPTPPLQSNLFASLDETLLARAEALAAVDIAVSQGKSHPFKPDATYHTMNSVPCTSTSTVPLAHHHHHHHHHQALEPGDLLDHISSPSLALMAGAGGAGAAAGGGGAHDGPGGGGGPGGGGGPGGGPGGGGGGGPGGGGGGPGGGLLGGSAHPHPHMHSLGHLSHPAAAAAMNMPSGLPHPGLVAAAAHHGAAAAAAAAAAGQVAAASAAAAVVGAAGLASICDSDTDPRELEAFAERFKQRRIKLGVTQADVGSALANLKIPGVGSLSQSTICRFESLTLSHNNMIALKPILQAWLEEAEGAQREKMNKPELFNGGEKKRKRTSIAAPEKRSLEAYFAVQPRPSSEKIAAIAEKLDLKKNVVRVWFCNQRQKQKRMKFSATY

T3: POU4F3 (UniProt Q15319 1-338)
T3 sequence: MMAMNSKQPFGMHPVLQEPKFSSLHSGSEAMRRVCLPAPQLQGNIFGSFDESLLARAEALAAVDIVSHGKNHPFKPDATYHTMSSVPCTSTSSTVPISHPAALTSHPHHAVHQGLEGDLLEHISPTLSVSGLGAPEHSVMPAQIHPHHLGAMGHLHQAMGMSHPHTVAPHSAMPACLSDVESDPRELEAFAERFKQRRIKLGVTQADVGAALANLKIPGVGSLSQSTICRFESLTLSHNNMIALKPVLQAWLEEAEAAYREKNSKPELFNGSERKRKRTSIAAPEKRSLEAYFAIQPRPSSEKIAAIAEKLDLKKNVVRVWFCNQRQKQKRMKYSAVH

T4: POU4F2-l (UniProt Q12837 1-409)
T4 sequence: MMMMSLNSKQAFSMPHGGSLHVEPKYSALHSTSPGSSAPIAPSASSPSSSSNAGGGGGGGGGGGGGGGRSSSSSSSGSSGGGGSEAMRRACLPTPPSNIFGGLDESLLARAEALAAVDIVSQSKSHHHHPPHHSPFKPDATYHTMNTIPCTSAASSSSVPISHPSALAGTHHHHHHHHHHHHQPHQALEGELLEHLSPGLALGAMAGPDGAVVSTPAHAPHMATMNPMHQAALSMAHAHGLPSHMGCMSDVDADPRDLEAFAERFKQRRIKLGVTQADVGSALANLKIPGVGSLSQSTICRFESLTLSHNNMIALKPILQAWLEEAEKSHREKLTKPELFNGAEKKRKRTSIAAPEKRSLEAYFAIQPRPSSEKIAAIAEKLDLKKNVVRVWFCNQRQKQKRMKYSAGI

T5: POU4F2-s (UniProt Q12837 98-409)
T5 sequence: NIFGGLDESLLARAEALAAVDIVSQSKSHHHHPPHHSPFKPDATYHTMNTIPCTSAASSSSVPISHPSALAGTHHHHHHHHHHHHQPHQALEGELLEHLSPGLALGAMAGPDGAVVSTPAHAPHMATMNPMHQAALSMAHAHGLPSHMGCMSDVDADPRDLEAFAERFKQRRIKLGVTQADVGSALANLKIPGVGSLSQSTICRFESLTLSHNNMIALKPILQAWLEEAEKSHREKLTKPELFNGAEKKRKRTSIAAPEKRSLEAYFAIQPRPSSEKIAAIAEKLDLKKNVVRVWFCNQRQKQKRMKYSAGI

B1: Probe 2m (dsDNA)
DNA 1: AGGGTTTTAAGGCCCTATTCAGTG
DNA 2: CACTGAATAGGGCCTTAAAACCCT
B2: Probe 1m (dsDNA)
DNA 1: AGCTCACGGCCTGAGTTAACAAAG
DNA 2: CTTTGTTAACTCAGGCCGTGAGCT
B3: Probe 6m (dsDNA)
DNA 1: AGAAATCCTTAGGCCTTGACTTTG
DNA 2: CAAAGTCAAGGCCTAAGGATTTCT
B4: Probe 2 (Site 2) (dsDNA)
DNA 1: AGGGTTTTAATTAACTATTCAGTG
DNA 2: CACTGAATAGTTAATTAAAACCCT

Columns and labels:
[1] = biological target: T1, POU4F1-s; test: competition EMSA; details: unlabeled, vs 32P-Probe 2; strongest competitor; 10 mM Tris-Cl pH 7.9, 100 mM KCl, 5 mM MgCl2, 1 mM EDTA, 1 mM DTT, 0.5 mM PMSF, 5% glycerol, 1 ug poly(dI-dC), on ice 30 min; 5% polyacrylamide gel
[2] = biological target: T2, POU4F1-l; test: EMSA; 10 mM Tris-Cl pH 7.9, 100 mM KCl, 5 mM MgCl2, 1 mM EDTA, 1 mM DTT, 0.5 mM PMSF, 5% glycerol, 1 ug poly(dI-dC), on ice 30 min; 5% polyacrylamide gel; details: protein: ivt
[3] = biological target: T3, POU4F3; test: as above; details: protein: ivt
[4] = biological target: T4, POU4F2-l; test: as above; details: protein: ivt
[5] = biological target: T5, POU4F2-s; test: as above; details: protein: ivt
[6] = biological target: T1, POU4F1-s; test: as above; details: protein: ivt; label: 32P fill-in; overhangs filled in by Klenow
[7] = overhangs filled in by Klenow when labeled
[8] = label: 32P fill-in, overhangs filled in by Klenow

Row | Molecule | binding signal (relative binding strength) [1] | binding result [2, 7] | binding result [3, 7] | binding result [4, 7] | binding result [5, 7] | binding result [6] | binding result [2, 8] | binding result [3, 8] | binding result [4, 8] | binding result [5, 8]
1 | POU4F1 consensus site competitor | 1000 | – | – | – | – | – | – | – | – | –
2 | B1 | – | no binding | no binding | no binding | no binding | – | – | – | – | –
3 | B2 | – | – | – | – | – | no binding | no binding | no binding | no binding | no binding
4 | B3 | – | – | – | – | – | no binding | no binding | no binding | no binding | no binding
5 | B4 | – | – | binds | binds | binds | – | – | – | – | –
